Test results reported in patent publication US20250145729A1 (DENALI THERAPEUTICS, published 2025).
Where a chain is given by its changes, count along the chain named. Like-named read-outs stand apart in the source and are kept apart here.

B1: human CD98hc (receptor)
chain: CRELPAQKWWHTGALYRIGDLQAFQGHGAGNLAGLKGRLDYLSSLKVKGLVLGPIHKNQKDDVAQTDLLQIDPNFGSKEDFDSLLQSAKKKSIRVILDLTPNYRGENSWFSTQVDTVATKVKDALEFWLQAGVDGFQVRDIENLKDASSFLAEWQNITKGFSEDRLLIAGTNSSDLQQILSLLESNKDLLLTSSYLSDSGSTGEHTKSLVTQYLNATGNRWCSWSLSQARLLTSFLPAQLLRLYQLMLFTLPGTPVFSYGDEIGLDAAALPGQPMEAPVMLWDESSFPDIPGAVSANMTVKGQSEDPGSLLSLFRRLSDQRSKERSLLHGDFHAFSAGPGLFSYIRHWDQNERFLVVLNFGDVGLSAGLQASDLPASASLPAKADLLLSTQPGREEGSPLELERLKLEPHEGLLLRFPYAA
notes: also called huCD98hc; CD98 heavy chain
B2: 6.5.11.1 bivalent (Fc fusion)
chain: APELLGGPSVFLFPPKPKDTLMISRTPEVTCVVVDVSHEDPEVKFNWYVDGVEVHNAKTKPREEQYNSTYRVVSVLTVLHQDWLNGKEYKCKVSNKALPAPIEKTISKAKGQPREPQVYTLPPSRDELTKNQVSLTCLVKGFYPSDIAVNWFSNGQIENNYKTTPPVLDSDGSFFLYSKLTVDKSRWQQGNLFACEVMHEALHNHYTYKLLSLSPGK
notes: also called Clone 6.5.11.1 bivalent
B3: 6.5.11.5.42 bivalent (Fc fusion)
chain: B2 chain with L4A, L5A, N150Y, N154G, I157R
notes: both Fc with LALA
B4: Clone 27: LLB2-10-8 monovalent, non-binding Fabs, LALAPG (Fc fusion)
chain 1: APEAAGGPSVFLFPPKPKDTLMISRTPEVTCVVVDVSHEDPEVKFNWYVDGVEVHNAKTKPREEQYNSTYRVVSVLTVLHQDWLNGKEYKCKVSNKALGAPIEKTISKAKGQPREPQVYTLPPSRDELTKNQVSLWCLVKGFYPSDIAVLWNSRFVLENNYKTTPPVLDSDGSFFLYSKLTVDKSRWQQGEIFACNVYHEALHNHYTFKNLALSPGK
chain 2: APEAAGGPSVFLFPPKPKDTLMISRTPEVTCVVVDVSHEDPEVKFNWYVDGVEVHNAKTKPREEQYNSTYRVVSVLTVLHQDWLNGKEYKCKVSNKALGAPIEKTISKAKGQPREPQVYTLPPSRDELTKNQVSLSCAVKGFYPSDIAVEWESNGQPENNYKTTPPVLDSDGSFFLVSKLTVDKSRWQQGNVFSCSVMHEALHNHYTQKSLSLSPGK
notes: effector negative (LALAPG)
B5: human CD98hc (receptor)
chain: B1 chain
notes: as for B1

How the values were obtained:
[1] = biological target: T1, LLB2-10-6 Mono (Homo sapiens (Human), UniProt P0DOX5 233-449 = IgG part; P0DOX5 233-449 = IgG part, T366W); assay: SPR (Biacore)
T1 construct: Fc parts only
Summary of the method: (§1)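 Binding affinity (Kd) of the engineered Fc polypeptides for CD98hc was measured by surface plasmon resonance on a Biacore instrument. Clones were cloned, expressed and purified as Fc-Fab fusions carrying anti-BACE1 Fabs. They were tested in a bivalent format or in a monovalent knob/hole format with the CD98hc-binding site on the knob chain only. The text gives no concentrations, temperature, buffer or replicate numbers.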

[2] = biological target: T2, LLB2-10-8-d3 MV (Homo sapiens (Human), UniProt P0DOX5 233-449 = IgG part; P0DOX5 233-449 = IgG part, T366W); assay: SPR (Biacore)
T2 construct: Fc parts only; MV = monovalent
Summary of the method: as §1

[3] = biological target: T3, LLB2-10-8-d1 MV (Homo sapiens (Human), UniProt P0DOX5 233-449 = IgG part; P0DOX5 233-449 = IgG part, T366W); assay: SPR (Biacore)
T3 construct: Fc parts only; MV = monovalent
Summary of the method: as §1

[4] = biological target: T4, LLB2.10.8.12.5 (Homo sapiens (Human), UniProt P0DOX5 233-449 = IgG part; P0DOX5 233-449 = IgG part, T366W); assay: SPR (Biacore)
T4 construct: Fc parts only
Summary of the method: as §1

[5] = biological target: T5, LLB2.10.8.4.12 (Homo sapiens (Human), UniProt P0DOX5 233-449 = IgG part; P0DOX5 233-449 = IgG part, T366W); assay: SPR (Biacore)
T5 construct: Fc parts only
Summary of the method: as §1

[6] = biological target: T6, LLB2-37 (monovalent, Table A6) (Homo sapiens (Human), UniProt P0DOX5 233-449 = IgG part; P0DOX5 233-449 = IgG part, T366W); assay: SPR (Biacore)
T6 construct: Fc parts only
Summary of the method: as §1

[7] = biological target: T7, LLB2.10.8.10.1 (Homo sapiens (Human), UniProt P0DOX5 233-449 = IgG part; P0DOX5 233-449 = IgG part, T366W); assay: SPR (Biacore)
T7 construct: Fc parts only
Summary of the method: as §1

[8] = biological target: T8, LLB2.10.8.10.8 (Homo sapiens (Human), UniProt P0DOX5 233-449 = IgG part; P0DOX5 233-449 = IgG part, T366W); assay: SPR (Biacore)
T8 construct: Fc parts only
Summary of the method: as §1

[9] = biological target: T9, LLB2.10.8.10.3 (Homo sapiens (Human), UniProt P0DOX5 233-449 = IgG part; P0DOX5 233-449 = IgG part, T366W); assay: SPR (Biacore)
T9 construct: Fc parts only
Summary of the method: as §1

[10] = biological target: T10, LLB2.10.8.2.1 (Homo sapiens (Human), UniProt P0DOX5 233-449 = IgG part; P0DOX5 233-449 = IgG part, T366W); assay: SPR (Biacore)
T10 construct: Fc parts only
Summary of the method: as §1

[11] = biological target: T11, circularly permuted human TfR apical domain (human); assay: Biacore SPR, Fc-Fab fusion
T11 construct: TfR residues 326-379 stand N-terminal to 194-296, loop 297-325 deleted; also called huTfR Apical Domain
T11 chain: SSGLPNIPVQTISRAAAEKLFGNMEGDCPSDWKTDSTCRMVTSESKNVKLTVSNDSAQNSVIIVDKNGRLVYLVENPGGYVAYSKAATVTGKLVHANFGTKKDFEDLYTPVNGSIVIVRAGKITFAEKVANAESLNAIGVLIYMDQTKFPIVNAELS

[12] = biological target: T11, circularly permuted human TfR apical …; assay: Biacore SPR, Fc-Fab fusion; bivalent, LALA
[13] = biological target: B5; assay: affinity as listed in study design table; method not given there
[14] = biological target: T12, Clone 8: LLB2-10-6 monovalent, non-binding Fabs (Homo sapiens (Human), UniProt P0DOX5 233-449 = IgG part; P0DOX5 233-449 = IgG part, T366W); assay: as above
T12 construct: CD98hc site on the knob Fc only; effector positive

[15] = biological target: T13, Clone 13: LLB1-3-16 monovalent, non-binding Fabs (Homo sapiens (Human), UniProt P0DOX5 233-449 = IgG part; P0DOX5 233-449 = IgG part, T366W); assay: as above
T13 construct: CD98hc site on the knob Fc only; effector positive

[16] = biological target: T12, Clone 8: LLB2-10-6 monovalent, …; assay: as above; remark: listed apart in the source
[17] = biological target: T12, Clone 8: LLB2-10-6 monovalent, …; assay: as above; remark: listed apart in the source
[18] = biological target: T12, Clone 8: LLB2-10-6 monovalent, …; assay: as above; remark: listed apart in the source
[19] = biological target: T14, Clone 18: LLB2-37 monovalent, non-binding Fabs (Homo sapiens (Human), UniProt P0DOX5 233-449 = IgG part; P0DOX5 233-449 = IgG part, T366W); assay: as above
T14 construct: CD98hc site on the knob Fc only; effector positive

In the case of B1, the Kd [1] is reported as 420 nM, the Kd [2] is reported as 470 nM and the Kd [3] is reported as 250 nM. For the same binder, the Kd [4] was 230 nM, the Kd [5] was 15 nM and the Kd [6] was 390 nM. It also gave a Kd [7] of 54 nM, a Kd [8] of 94 nM and a Kd [9] of 43 nM. The Kd [10] was 110 nM.

With B2 the Kd [11] was 20000 to 40000 nM.

B3 showed a Kd [12] of 2000 nM.

B4 showed a Kd [13] of 100 to 200 nM.

Work on B5 yielded a Kd [14] of 260 nM, a Kd [15] of 32 nM and a Kd [16] of 260 nM. It also gave a Kd [17] of 230 nM, a Kd [18] of 260 nM and a Kd [19] of 390 nM.
